The results in this text go back to paper PMC10611751 (2023).

T1: p120 catenin 324-938 (mouse, UniProt P30999 324-938)
T1 chain: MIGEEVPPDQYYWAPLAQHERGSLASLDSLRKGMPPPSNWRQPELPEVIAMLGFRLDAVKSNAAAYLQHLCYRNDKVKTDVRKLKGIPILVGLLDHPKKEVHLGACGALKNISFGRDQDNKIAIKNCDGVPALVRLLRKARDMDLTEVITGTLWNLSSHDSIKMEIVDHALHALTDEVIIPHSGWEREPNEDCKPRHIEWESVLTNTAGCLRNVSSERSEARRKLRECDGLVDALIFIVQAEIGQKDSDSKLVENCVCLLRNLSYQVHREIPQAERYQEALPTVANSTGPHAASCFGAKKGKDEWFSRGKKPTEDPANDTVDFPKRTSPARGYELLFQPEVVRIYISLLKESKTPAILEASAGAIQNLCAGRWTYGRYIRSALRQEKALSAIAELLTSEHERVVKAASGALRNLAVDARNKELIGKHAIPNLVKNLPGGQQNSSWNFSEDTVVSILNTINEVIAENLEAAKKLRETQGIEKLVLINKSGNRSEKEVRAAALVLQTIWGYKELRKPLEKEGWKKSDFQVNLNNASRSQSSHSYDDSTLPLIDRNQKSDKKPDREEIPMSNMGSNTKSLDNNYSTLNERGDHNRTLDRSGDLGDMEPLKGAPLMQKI

T2: full-length β-catenin 1-781 (mouse, UniProt Q02248 1-781)
T2 chain: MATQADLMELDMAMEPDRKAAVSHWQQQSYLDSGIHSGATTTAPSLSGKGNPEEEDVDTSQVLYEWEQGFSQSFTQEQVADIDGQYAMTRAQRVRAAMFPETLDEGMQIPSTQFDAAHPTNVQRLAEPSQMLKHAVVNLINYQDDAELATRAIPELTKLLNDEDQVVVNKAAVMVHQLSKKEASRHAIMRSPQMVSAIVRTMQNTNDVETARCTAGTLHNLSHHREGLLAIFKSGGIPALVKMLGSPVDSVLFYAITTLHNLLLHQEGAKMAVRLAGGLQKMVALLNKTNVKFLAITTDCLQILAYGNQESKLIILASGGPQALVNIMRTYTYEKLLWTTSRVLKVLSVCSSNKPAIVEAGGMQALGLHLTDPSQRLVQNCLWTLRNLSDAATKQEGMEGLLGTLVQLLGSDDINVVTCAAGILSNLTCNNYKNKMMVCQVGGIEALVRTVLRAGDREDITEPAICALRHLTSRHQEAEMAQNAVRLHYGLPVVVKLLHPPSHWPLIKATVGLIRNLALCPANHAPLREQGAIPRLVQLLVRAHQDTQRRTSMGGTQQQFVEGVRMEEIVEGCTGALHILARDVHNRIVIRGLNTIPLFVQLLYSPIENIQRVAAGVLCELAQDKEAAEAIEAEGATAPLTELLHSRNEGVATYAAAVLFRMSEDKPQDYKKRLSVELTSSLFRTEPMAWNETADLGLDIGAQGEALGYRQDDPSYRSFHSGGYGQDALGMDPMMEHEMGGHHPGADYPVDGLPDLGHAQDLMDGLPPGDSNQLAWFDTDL

T3: AnkG R6-24 (Rattus norvegicus)
T3 chain: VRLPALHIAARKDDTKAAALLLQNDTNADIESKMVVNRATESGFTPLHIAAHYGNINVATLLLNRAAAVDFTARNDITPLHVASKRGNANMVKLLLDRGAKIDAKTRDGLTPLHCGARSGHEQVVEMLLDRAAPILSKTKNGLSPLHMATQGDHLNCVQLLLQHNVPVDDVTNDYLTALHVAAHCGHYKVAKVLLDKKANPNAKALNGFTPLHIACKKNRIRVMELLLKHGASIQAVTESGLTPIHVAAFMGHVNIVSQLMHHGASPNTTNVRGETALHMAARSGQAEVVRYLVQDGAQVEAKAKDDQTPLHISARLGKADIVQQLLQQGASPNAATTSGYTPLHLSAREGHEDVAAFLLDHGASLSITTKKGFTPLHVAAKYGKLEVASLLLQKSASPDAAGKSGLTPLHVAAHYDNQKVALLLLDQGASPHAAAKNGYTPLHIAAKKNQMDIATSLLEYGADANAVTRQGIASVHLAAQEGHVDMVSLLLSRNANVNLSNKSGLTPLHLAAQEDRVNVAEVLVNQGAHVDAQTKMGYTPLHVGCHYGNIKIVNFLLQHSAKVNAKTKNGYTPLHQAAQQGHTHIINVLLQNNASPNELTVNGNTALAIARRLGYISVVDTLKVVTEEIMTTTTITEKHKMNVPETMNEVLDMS

T4: Ankyrin-G ANK repeats 8-14 (UniProt O70511 275-500)
T4 chain: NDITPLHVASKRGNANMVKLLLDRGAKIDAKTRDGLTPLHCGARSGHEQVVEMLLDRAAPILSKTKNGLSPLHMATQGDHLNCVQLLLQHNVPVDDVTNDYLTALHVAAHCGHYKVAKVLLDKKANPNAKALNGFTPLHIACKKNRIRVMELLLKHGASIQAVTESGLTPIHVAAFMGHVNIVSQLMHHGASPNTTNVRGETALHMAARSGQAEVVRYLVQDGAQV

B1: Ankyrin-G 24 ANK repeats (residues 38-855) (domain or fragment)
chain: KSDANASYLRAARAGHLEKALDYIKNGVDVNICNQNGLNALHLASKEGHVEVVSELLQREANVDAATKKGNTALHIASLAGQAEVVKVLVTNGANVNAQSQNGFTPLYMAAQENHLEVVRFLLDNGASQSLATEDGFTPLAVALQQGHDQVVSLLLENDTKGKVRLPALHIAARKDDTKAAALLLQNDTNADIESKMVVNRATESGFTPLHIAAHYGNINVATLLLNRAAAVDFTARNDITPLHVASKRGNANMVKLLLDRGAKIDAKTRDGLTPLHCGARSGHEQVVEMLLDRAAPILSKTKNGLSPLHMATQGDHLNCVQLLLQHNVPVDDVTNDYLTALHVAAHCGHYKVAKVLLDKKANPNAKALNGFTPLHIACKKNRIRVMELLLKHGASIQAVTESGLTPIHVAAFMGHVNIVSQLMHHGASPNTTNVRGETALHMAARSGQAEVVRYLVQDGAQVEAKAKDDQTPLHISARLGKADIVQQLLQQGASPNAATTSGYTPLHLSAREGHEDVAAFLLDHGASLSITTKKGFTPLHVAAKYGKLEVASLLLQKSASPDAAGKSGLTPLHVAAHYDNQKVALLLLDQGASPHAAAKNGYTPLHIAAKKNQMDIATSLLEYGADANAVTRQGIASVHLAAQEGHVDMVSLLLSRNANVNLSNKSGLTPLHLAAQEDRVNVAEVLVNQGAHVDAQTKMGYTPLHVGCHYGNIKIVNFLLQHSAKVNAKTKNGYTPLHQAAQQGHTHIINVLLQNNASPNELTVNGNTALAIARRLGYISVVDTLKVVTEEIMTTTTITEKHKMNVPETMNEVLDMS
B2: E-cadherin C-terminal domain (residues 734-884) (domain or fragment)
chain: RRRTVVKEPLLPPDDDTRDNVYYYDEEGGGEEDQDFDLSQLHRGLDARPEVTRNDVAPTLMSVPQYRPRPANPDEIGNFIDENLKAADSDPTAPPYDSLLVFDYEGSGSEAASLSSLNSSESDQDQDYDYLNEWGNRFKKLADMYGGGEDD

What all share (test): ITC
A general note: In ITC the heat of successive injections is recorded.

Assay [1] deals with E-cadherin CTD site-1, 3 to A (mouse, UniProt P09803 734-884, Y755A | Y756A | Y757A | Y861A | Y863A | W867A).
For assay [2], the target named is E-cadherin CTD site-1, 2 to A (mouse, UniProt P09803 734-884, Y755A | Y756A | Y757A | Y829A | Y837A).
Assay [3] concerns the target E-cadherin CTD site-2 to A (mouse, UniProt P09803 734-884, Y829A | Y837A).
In assay [4] the target is E-cadherin CTD site-3 to A (mouse, UniProt P09803 734-884, Y861A | Y863A | W867A).
Assay [5] has as its target E-cadherin CTD site-2, 3 to A (mouse, UniProt P09803 734-884, Y829A | Y837A | Y861A | Y863A | W867A).
Assay [6] has as its target E-cadherin CTD site-1 to A (mouse, UniProt P09803 734-884, Y755A | Y756A | Y757A).
In a further assay the target is T1, p120 catenin 324-938.
For assay [7], the target named is T2, full-length β-catenin 1-781.
A further assay addresses T3, AnkG R6-24.
The target of assay [8] is T4, Ankyrin-G ANK repeats 8-14.
Assay [9] has as its target B1.

As a reminder, the Kd is the constant that tells how readily two partners part at equilibrium. A low value points to tighter binding. For the molecule B1, the Kd in [1] worked out at 4900 nM; in assay [2], 6300 nM; in assay [3], 2900 nM; in [4] it was 4200 nM; in assay [5], 3300 nM; in [6], 2000 nM.
Regarding B2, the Kd in the assay with p120 catenin 324-938 was 1700 nM; in assay [7], 36 nM; with AnkG R6-24 it was 2900 nM; in [8], 5000 nM; in assay [9], 2800 nM.
